The test deals with T1, wild-type soluble E2 (sE2), HCV isolate H77C, residues 384-661 (UniProt P27958 384-661).
T1 chain: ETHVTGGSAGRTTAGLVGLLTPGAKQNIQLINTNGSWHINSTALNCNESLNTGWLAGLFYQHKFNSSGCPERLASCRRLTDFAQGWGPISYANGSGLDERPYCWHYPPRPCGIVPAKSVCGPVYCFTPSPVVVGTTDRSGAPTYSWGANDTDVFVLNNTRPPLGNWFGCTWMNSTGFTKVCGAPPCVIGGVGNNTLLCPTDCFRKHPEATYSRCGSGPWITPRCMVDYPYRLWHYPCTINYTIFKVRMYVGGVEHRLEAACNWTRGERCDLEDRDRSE
Briefly: BLI. A general note: Biolayer interferometry detects binding as a change in optical thickness at a sensor tip.

B1: CD81 large extracellular loop (LEL) (receptor)
chain: FVNKDQIAKDVKQFYDQALQQAVVDDDANNAKAVVKTFHETLDCCGSSTLTALTTSVLKNNLCPSGSNIISNLFKEDCHQKIDDLFSGK
The Kd is the free concentration of one partner at which half of the binding sites on the other are occupied at equilibrium, for simple one-to-one binding. Low readings indicate a tighter complex, high ones a looser complex. B1 displayed a Kd of 22 nM.

The record behind these values is patent publication US20220054630A1 (published 2022).
